Measured values reported in article PMC2987766.

Experiments:
[1] = target: Recombinant perlecan domain I (PlnDI), undigested (UniProt Q05793); test: far-Western, overlay or dot blot; solution phase, pH 6.0: PlnDI (5 ug) pre-incubated with 20 ng VEGF165 for 1 hr at room temperature (25 mM HEPES), then blotted onto nitrocellulose; bound VEGF165 detected with anti-VEGF165 antibodies; background subtracted
[2] = target: Recombinant perlecan domain I (PlnDI), undigested (UniProt Q05793); test: far-Western, overlay or dot blot; solution phase, pH 7.0: PlnDI (5 ug), untreated or pre-digested with heparinase cocktail and/or chondroitinase ABC, pre-incubated with 20 ng VEGF165 for 1 hr at room temperature (25 mM HEPES), then blotted onto nitrocellulose; bound VEGF165 detected with anti-VEGF165 antibodies; background subtracted
[3] = target: Recombinant perlecan domain I (PlnDI), undigested (UniProt Q05793); test: far-Western, overlay or dot blot; solid phase: PlnDI, undigested or pre-digested with heparinase cocktail +/- chondroitinase ABC, immobilised on nitrocellulose and incubated with VEGF165; bound VEGF165 detected with VEGF monoclonal antibodies, densitometry; heparin 0.25 ug/ml for competitive inhibition
[4] = target: PlnDI pre-digested with a heparinase cocktail (heparinases I, II and III); test: as above

Recombinant human vascular endothelial growth factor-165 (ligand)
percent reduction of binding against pH 8.0 [1]: 80% | percent reduction of binding against pH 8.0 [2]: 50% | percent of binding prevented by heparin 0.25 ug/ml [3]: 80% | percent reduction of binding against undigested PlnDI [4]: 75%
